According to patent publication US20060105951A1:

Experiments:
[1] = target: melanocortin 4 receptor (MC4R) (Homo sapiens) (UniProt P32245); test: cell-based or functional assay
[2] = target: melanocortin 4 receptor (MC4R) (Homo sapiens) (UniProt P32245); test: competitive binding assay (range of obtained IC50 values); competitor [125I]-NDP-alpha-MSH

UniProt P32245, sequence (P32245 whole entry V103I): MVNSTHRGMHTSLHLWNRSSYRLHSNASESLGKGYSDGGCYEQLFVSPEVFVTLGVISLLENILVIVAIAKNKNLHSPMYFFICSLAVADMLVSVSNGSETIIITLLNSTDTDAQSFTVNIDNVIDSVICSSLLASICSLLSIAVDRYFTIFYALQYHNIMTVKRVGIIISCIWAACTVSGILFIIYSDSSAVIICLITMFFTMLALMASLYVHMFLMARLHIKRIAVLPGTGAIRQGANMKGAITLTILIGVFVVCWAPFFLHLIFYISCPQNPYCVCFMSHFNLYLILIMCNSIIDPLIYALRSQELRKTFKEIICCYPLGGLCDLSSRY

- EC50, cAMP production, CHOK1 Clone 1 (high MC4R expression) [1]: 0.52 nM
- EC50, cAMP production, CHOK1 Clone 2 (low MC4R expression) [1]: 0.52 nM
- IC50 [2]: 5 to 30 nM
Substance: melanotan II (MTII) (peptide)
